Experimental data from patent US20090280138A1 (OXFORD BIOMEDICA UK, published 2009).

Tests used:
[1] = biological target: T1, MHC class I molecule HLA-A*0201 (iTopia plate-bound monomer) (biotin (bound to streptavidin-coated plate)); assay: iTopia off-rate assay, 37 C; fit R^2 0.77
T1 construct: also called A2
Description: (§1) The 9 mers were tested for Peptide Binding, Off Rate and Affinity using iTopia Epitope Discovery System in accordance with the manufacturer's instructions. Briefly, 96 well microtitre plates coated with MHC molecules representing different MHC alleles are used to identify candidate peptides. […] Determinations are performed in duplicate using an ELISA plate reader and included allele specific positive controls.
(§2) A one-phase exponential decay curve, with a plateau given equal to 0, was generated using GraphPad Prism® software, which calculated the t1/2 and goodness-of-fit, as measured by r², for each peptide.

[2] = biological target: T2, MHC class I molecule HLA-A*0301 (iTopia plate-bound monomer) (biotin (bound to streptavidin-coated plate)); assay: iTopia off-rate assay, 37 C; fit R^2 0.97
T2 construct: also called A3
Description: as §1, §2

[3] = biological target: T3, MHC class I molecule HLA-B*0702 (iTopia plate-bound monomer) (biotin (bound to streptavidin-coated plate)); assay: iTopia off-rate assay, 37 C; fit R^2 0.87
T3 construct: Commercial iTopia system; also called B7
Description: as §1, §2

[4] = biological target: T1, MHC class I molecule HLA-A*0201 (iTopia …); assay: iTopia off-rate assay, 37 C; fit R^2 0.58
Description: as §1, §2

[5] = biological target: T3, MHC class I molecule HLA-B*0702 (iTopia …); assay: iTopia off-rate assay, 37 C; fit R^2 0.95
Outline: (§3)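 First, 9-mer peptides were applied to plates coated with MHC alleles. Next, binding was read by ELISA reader in duplicate alongside allele-specific positive controls. Finally, the decay data were fitted (one-phase exponential, plateau 0) to obtain half-life and r².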

[6] = biological target: T1, MHC class I molecule HLA-A*0201 (iTopia …); assay: iTopia off-rate assay, 37 C; fit R^2 0.11
Description: as §1, §2

[7] = biological target: T3, MHC class I molecule HLA-B*0702 (iTopia …); assay: iTopia off-rate assay, 37 C; fit R^2 0.81
Description: as §1, §2

[8] = biological target: T1, MHC class I molecule HLA-A*0201 (iTopia …); assay: iTopia off-rate assay, 37 C; fit R^2 0.81
Description: as §1, §2

[9] = biological target: T1, MHC class I molecule HLA-A*0201 (iTopia …); assay: iTopia off-rate assay, 37 C; fit R^2 0.02
Description: as §1, §2

[10] = biological target: T2, MHC class I molecule HLA-A*0301 (iTopia …); assay: iTopia off-rate assay, 37 C; fit R^2 0.84
Description: as §1, §2

[11] = biological target: T1, MHC class I molecule HLA-A*0201 (iTopia …); assay: iTopia off-rate assay, 37 C; fit R^2 0.76
Description: as §1, §2

[12] = biological target: T1, MHC class I molecule HLA-A*0201 (iTopia …); assay: iTopia off-rate assay, 37 C; fit R^2 0.75
Description: as §1, §2

[13] = biological target: T3, MHC class I molecule HLA-B*0702 (iTopia …); assay: iTopia off-rate assay, 37 C; fit R^2 0.38
Description: as §1, §2

[14] = biological target: T1, MHC class I molecule HLA-A*0201 (iTopia …); assay: iTopia off-rate assay, 37 C; fit R^2 0.42
Description: as §1, §2

[15] = biological target: T3, MHC class I molecule HLA-B*0702 (iTopia …); assay: iTopia off-rate assay, 37 C; fit R^2 0.82
Description: as §1, §2

[16] = biological target: T2, MHC class I molecule HLA-A*0301 (iTopia …); assay: iTopia off-rate assay, 37 C; fit R^2 0.64
Description: as §1, §2

[17] = biological target: T4, MHC class I molecule HLA-A*0101 (iTopia plate-bound monomer) (biotin (bound to streptavidin-coated plate)); assay: iTopia off-rate assay, 37 C; fit R^2 0.12
T4 construct: also called A1
Description: as §1, §2

[18] = biological target: T1, MHC class I molecule HLA-A*0201 (iTopia …); assay: iTopia off-rate assay, 37 C; fit R^2 0.2
Description: as §1, §2

[19] = biological target: T3, MHC class I molecule HLA-B*0702 (iTopia …); assay: iTopia off-rate assay, 37 C; fit R^2 0.73
Description: as §1, §2

[20] = biological target: T2, MHC class I molecule HLA-A*0301 (iTopia …); assay: iTopia off-rate assay, 37 C; fit R^2 0.99
Description: as §1, §2

[21] = biological target: T2, MHC class I molecule HLA-A*0301 (iTopia …); assay: iTopia off-rate assay, 37 C; fit R^2 0.01
Description: as §1, §2

[22] = biological target: T1, MHC class I molecule HLA-A*0201 (iTopia …); assay: iTopia off-rate assay, 37 C; fit R^2 0.72
Description: as §1, §2

[23] = biological target: T4, MHC class I molecule HLA-A*0101 (iTopia …); assay: iTopia off-rate assay, 37 C; fit R^2 0.18
Description: as §1, §2

[24] = biological target: T1, MHC class I molecule HLA-A*0201 (iTopia …); assay: iTopia off-rate assay, 37 C; fit R^2 0.46
Description: as §1, §2

[25] = biological target: T3, MHC class I molecule HLA-B*0702 (iTopia …); assay: iTopia off-rate assay, 37 C; fit R^2 0.26
Description: as §1, §2

[26] = biological target: T3, MHC class I molecule HLA-B*0702 (iTopia …); assay: iTopia off-rate assay, 37 C; fit R^2 0.76
Description: as §1, §2

[27] = biological target: T3, MHC class I molecule HLA-B*0702 (iTopia …); assay: iTopia off-rate assay, 37 C; fit R^2 0
Description: as §1, §2

[28] = biological target: T2, MHC class I molecule HLA-A*0301 (iTopia …); assay: iTopia off-rate assay, 37 C; fit R^2 0.96
Description: as §1, §2

[29] = biological target: T1, MHC class I molecule HLA-A*0201 (iTopia …); assay: iTopia off-rate assay, 37 C; fit R^2 0.97
Description: as §1, §2

[30] = biological target: T4, MHC class I molecule HLA-A*0101 (iTopia …); assay: iTopia off-rate assay, 37 C; fit R^2 0.15
Description: as §1, §2

[31] = biological target: T3, MHC class I molecule HLA-B*0702 (iTopia …); assay: iTopia off-rate assay, 37 C; fit R^2 0.86
Description: as §1, §2

[32] = biological target: T3, MHC class I molecule HLA-B*0702 (iTopia …); assay: iTopia off-rate assay, 37 C; fit R^2 0.68
Description: as §1, §2

[33] = biological target: T1, MHC class I molecule HLA-A*0201 (iTopia …); assay: iTopia off-rate assay, 37 C; fit R^2 0.95
Outline: as §3

[34] = biological target: T2, MHC class I molecule HLA-A*0301 (iTopia …); assay: iTopia off-rate assay, 37 C; fit R^2 0.61
Description: as §1, §2

[35] = biological target: T3, MHC class I molecule HLA-B*0702 (iTopia …); assay: iTopia off-rate assay, 37 C; fit R^2 0.67
Description: as §1, §2

[36] = biological target: T1, MHC class I molecule HLA-A*0201 (iTopia …); assay: iTopia off-rate assay, 37 C; fit R^2 0.87
Description: as §1, §2

[37] = biological target: T1, MHC class I molecule HLA-A*0201 (iTopia …); assay: iTopia off-rate assay, 37 C; fit R^2 0.3
Description: as §1, §2

[38] = biological target: T1, MHC class I molecule HLA-A*0201 (iTopia …); assay: iTopia off-rate assay, 37 C; fit R^2 0.9
Outline: as §3

[39] = biological target: T3, MHC class I molecule HLA-B*0702 (iTopia …); assay: iTopia off-rate assay, 37 C; fit R^2 0.94
Outline: as §3

[40] = biological target: T1, MHC class I molecule HLA-A*0201 (iTopia …); assay: iTopia off-rate assay, 37 C; fit R^2 0.26
Description: as §1, §2

[41] = biological target: T1, MHC class I molecule HLA-A*0201 (iTopia …); assay: iTopia off-rate assay, 37 C; fit R^2 0.79
Description: as §1, §2

[42] = biological target: T3, MHC class I molecule HLA-B*0702 (iTopia …); assay: iTopia off-rate assay, 37 C; fit R^2 0.1
Description: as §1, §2

[43] = biological target: T4, MHC class I molecule HLA-A*0101 (iTopia …); assay: iTopia off-rate assay, 37 C; fit R^2 0.76
Description: as §1, §2

## VLAQLPSLR [5T4 9-mer peptide 115 VLAQLPSLR]
[1]
  t½ half life: 36 min
[2]
  t½ half life: 12 min

## LPRDVLAQL [5T4 9-mer peptide 113 LPRDVLAQL]
[3]
  t½ half life: 3.3 h

## LHNGTLAEL (also called Peptide No 137) [5T4 9-mer peptide 137 LHNGTLAEL]
[4]
  t½ half life: 4.2 h
[5]
  t½ half life: 18 min

## EVVQGKDRL [5T4 9-mer peptide 157 EVVQGKDRL]
[6]
  t½ half life: 11 h

## LPSLRHLDL (also called Peptide No 117) [5T4 9-mer peptide 117 LPSLRHLDL]
[7]
  t½ half life: 3 h
[8]
  t½ half life: 42 min

## LIGAIFLLV (also called Peptide No 183) [5T4 9-mer peptide 183 LIGAIFLLV]
[9]
  t½ half life: 19.4 h
[10]
  t½ half life: 30 min

## LDLSNNSLV (also called Peptide No 120) [5T4 9-mer peptide 120 LDLSNNSLV]
[11]
  t½ half life: 3.4 h

## LSNNSLVSL [5T4 9-mer peptide 121 LSNNSLVSL]
[12]
  t½ half life: 48 min
[13]
  t½ half life: 4.1 h

## GLPHIRVFL (also called Peptide No 142) [5T4 9-mer peptide 142 GLPHIRVFL]
[14]
  t½ half life: 12.9 h
[15]
  t½ half life: 54 min
[16]
  t½ half life: 6 h

## LTYVSFRNL [5T4 9-mer peptide 125 LTYVSFRNL]
[17]
  t½ half life: 3.9 h
[18]
  t½ half life: 8.1 h
[19]
  t½ half life: 6 h
[20]
  t½ half life: 42 min

## VVAALLAGR (also called Peptide No 100) [5T4 9-mer peptide 100 VVAALLAGR]
[21]
  t½ half life: 8.1 h

## LTCAYPEKM (also called Peptide No 161) [5T4 9-mer peptide 161 LTCAYPEKM]
[22]
  t½ half life: 3.1 h
[23]
  t½ half life: 3.7 h

## ILNHIVPPE (also called Peptide No 90) [5T4 9-mer peptide 90 ILNHIVPPE]
[24]
  t½ half life: 13 h

## APSPLVELI (also called Peptide No 86) [5T4 9-mer peptide 86 APSPLVELI]
[25]
  t½ half life: 1.6 h

## YPEKMRNRV (also called Peptide No 163) [5T4 9-mer peptide 163 YPEKMRNRV]
[26]
  t½ half life: 1.9 h

## YVSFRNLTH (also called Peptide No 126) [5T4 9-mer peptide 126 YVSFRNLTH]
[27]
  t½ half life: 2.6 h
[28]
  t½ half life: 0.9 h

## LASNHFLYL [5T4 9-mer peptide 109 LASNHFLYL]
[29]
  t½ half life: 1.3 h
[30]
  t½ half life: 3 h
[31]
  t½ half life: 12 min
[28]
  t½ half life: 3.6 h

## RALQGLRRL [5T4 9-mer peptide 104 RALQGLRRL]
[32]
  t½ half life: 6 min
[33]
  t½ half life: 36 min
[34]
  t½ half life: 24 min

## ASVSAPSPL (also called Peptide No 84) [5T4 9-mer peptide 84 ASVSAPSPL]
[35]
  t½ half life: 6 min
[36]
  t½ half life: 24 min

## EKMRNRVLL [5T4 9-mer peptide 164 EKMRNRVLL]
[37]
  t½ half life: 7 h

## LALIGAIFL (also called Peptide No 182) [5T4 9-mer peptide 182 LALIGAIFL]
[38]
  t½ half life: 3.2 h
[39]
  t½ half life: 30 min

## VFLGIVLAL (also called Peptide No 179) [5T4 9-mer peptide 179 VFLGIVLAL]
[40]
  t½ half life: 15 h

## AALLAGRAL [5T4 9-mer peptide 101 AALLAGRAL]
[41]
  t½ half life: 1.9 h
[42]
  t½ half life: 1.6 h

## QTSYVFLGI (also called Peptide No 177) [5T4 9-mer peptide 177 QTSYVFLGI]
[43]
  t½ half life: 12 min
[36]
  t½ half life: 36 min
